Tests used:
Assay in all cases: cell-based or functional assay
[1] = molecular target: HIV-1 IAVI-C18 envelope glycoprotein (Env) on pseudovirus (HIV-1)
[2] = molecular target: HIV-1 Env of isolate 92RW024 (clade A pseudovirus) (HIV-1)
[3] = molecular target: HIV-1 APV-13 envelope glycoprotein (Env) on pseudovirus (HIV-1)
[4] = molecular target: HIV-1 Env of pseudovirus MGRM-G-025 (HIV-1, clade G isolate MGRM-G-025)
[5] = molecular target: HIV-1 envelope glycoprotein (Env) of isolate 92RW008, clade A (HIV-1)
[6] = molecular target: envelope protein of aMLV pseudovirus (negative control)
[7] = molecular target: HIV-1 Env of isolate APV_13, clade B, on pseudovirus (HIV-1)
[8] = molecular target: HIV-1 Env of isolate CAAN.A2 (Acute), clade B, on pseudovirus (HIV-1)
[9] = molecular target: HIV-1 envelope glycoprotein (Env) of isolate 92RW009, clade A (HIV-1)
[10] = molecular target: HIV-1 Env of isolate LAVIC_18 (HIV-1)
[11] = molecular target: HIV-1 Env of isolate 98CN006 (CRF08 BC) (HIV-1 isolate 98CN006)
[12] = molecular target: HIV-1 Env of pseudovirus MGRM-F1-022 (HIV-1)
[13] = molecular target: HIV-1 envelope glycoprotein (Env) of isolate 93RW029, clade A (HIV-1)
[14] = molecular target: HIV-1 envelope glycoprotein (Env) of isolate MGRM-A-010, clade A (HIV-1)
[15] = molecular target: HIV-1 93IN905 envelope glycoprotein (Env) on pseudovirus (HIV-1)
[16] = molecular target: HIV-1 Env of isolate QH0692.42 (Acute), clade B, on pseudovirus (HIV-1)
[17] = molecular target: HIV-1 Env of isolate 92TH021 (subtype AE) (HIV-1)
[18] = molecular target: HIV-1 Env of isolate 98CN006 (HIV-1)
[19] = molecular target: HIV-1 Env of isolate THR0.18 (subtype B) (HIV-1)
[20] = molecular target: HIV-1 Env of isolate MGRM-AG-002 (subtype AG) (HIV-1)
[21] = molecular target: HIV-1 Env of isolate MG RM-D-005 (HIV-1)
[22] = molecular target: HIV-1 Env of isolate MGRM-AG-005 (subtype AG) (HIV-1)
[23] = molecular target: HIV-1 Env of isolate 92UG046 (HIV-1)
[24] = molecular target: HIV-1 Env of isolate MGRM-AG-013 (subtype AG) (HIV-1)
[25] = molecular target: HIV-1 Env of isolate JRFL (subtype B) (HIV-1)
[26] = molecular target: aMLV envelope, on pseudovirus (negative control virus)
[27] = molecular target: HIV-1 Env of isolate MG RM-D-002 (HIV-1)
[28] = molecular target: HIV-1 Env of isolate MGRM-A-012 (subtype A) (HIV-1)
[29] = molecular target: HIV-1 envelope glycoprotein (Env) of isolate MGRM-C-006 (HIV-1)
[30] = molecular target: HIV-1 Env of isolate MG RM-D-012 (HIV-1)
[31] = molecular target: HIV-1 Env of isolate MGRM-Chronic-B-003 (subtype B) (HIV-1)
[32] = molecular target: HIV-1 Env of isolate MGRM-A-013 (subtype A) (HIV-1)
[33] = molecular target: HIV-1 Env of isolate MGRM-Chronic-B-023 (subtype B) (HIV-1)
[34] = molecular target: HIV-1 Env of isolate 92UG031 (HIV-1)
[35] = molecular target: HIV-1 Env of isolate 92UG037 (HIV-1)
[36] = molecular target: HIV-1 Env of isolate MGRM-AE-001 (subtype AE) (HIV-1)
[37] = molecular target: HIV-1 Env of isolate MGRM-Chronic-B-020 (subtype B) (HIV-1)
[38] = molecular target: HIV-1 Env of isolate 6535.3 (HIV-1)
[39] = molecular target: HIV-1 Env of isolate NL43 (subtype B) (HIV-1)
[40] = molecular target: HIV-1 Env of isolate MGRM-A-011 (subtype A) (HIV-1)
[41] = molecular target: HIV-1 Env of pseudovirus isolate MGRM-G-028 (HIV-1)

1443_C16 (PG16) (TCN-116) (antibody), sequence (VH): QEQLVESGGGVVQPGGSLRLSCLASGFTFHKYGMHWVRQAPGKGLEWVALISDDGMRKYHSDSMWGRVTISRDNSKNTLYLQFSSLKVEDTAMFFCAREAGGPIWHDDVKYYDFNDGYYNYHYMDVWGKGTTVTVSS
1443_C16 (PG16) (TCN-116) (antibody), sequence (VL): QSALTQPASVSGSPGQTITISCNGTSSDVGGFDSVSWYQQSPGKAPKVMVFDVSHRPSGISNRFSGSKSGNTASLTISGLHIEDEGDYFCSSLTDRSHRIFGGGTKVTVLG

1495_C14 (PGC14) (antibody)
IC50, pseudovirus neutralization [1]: > 50 µg/mL
IC50 (µg/ml), pseudovirus neutralization [2]: > 50 µg/mL
IC50, pseudovirus neutralization [3]: > 50 µg/mL
IC50 (µg/ml), pseudovirus neutralization [4]: > 50 µg/mL
IC50 (µg/ml), pseudovirus neutralization [5]: 37 µg/mL
IC50 (µg/ml), pseudovirus neutralization [6]: > 50 µg/mL
IC50 (µg/ml), pseudovirus neutralization [7]: > 50 µg/mL
IC50 (µg/ml), pseudovirus neutralization [8]: > 50 µg/mL
IC50 (µg/ml), pseudovirus neutralization [9]: > 50 µg/mL
IC50 [10]: > 50 µg/mL
IC50 (µg/ml), pseudovirus neutralization [11]: > 50 µg/mL
IC50 (µg/ml), pseudovirus neutralization [12]: > 50 µg/mL
IC50 (µg/ml), pseudovirus neutralization [13]: 42 µg/mL
IC50 (µg/ml), pseudovirus neutralization [14]: > 50 µg/mL
IC50, pseudovirus neutralization [15]: > 50 µg/mL
IC50 (µg/ml), pseudovirus neutralization [16]: > 50 µg/mL

2G12 (antibody)
IC50, pseudovirus neutralization [1]: > 50 µg/mL
IC50 (µg/ml), pseudovirus neutralization [2]: > 50 µg/mL
IC50, pseudovirus neutralization [3]: 23.9 µg/mL
IC50 (µg/ml), pseudovirus neutralization [4]: 31.9 µg/mL
IC50 (µg/ml), pseudovirus neutralization [5]: 22.5 µg/mL
IC50 (µg/ml), pseudovirus neutralization [6]: > 50 µg/mL
IC50 (µg/ml), pseudovirus neutralization [7]: 9.24 µg/mL
IC50 (µg/ml), pseudovirus neutralization [8]: > 50 µg/mL
IC50 (µg/ml), pseudovirus neutralization [9]: 26.1 µg/mL
IC50 [10]: > 50 µg/mL
IC50 (µg/ml), pseudovirus neutralization [11]: > 50 µg/mL
IC50 (µg/ml), pseudovirus neutralization [12]: > 50 µg/mL
IC50 (µg/ml), pseudovirus neutralization [13]: > 50 µg/mL
IC50 (µg/ml), pseudovirus neutralization [14]: 17 µg/mL
IC50, pseudovirus neutralization [15]: > 50 µg/mL
IC50 (µg/ml), pseudovirus neutralization [16]: 4.39 µg/mL

5147_N06 (PGT-130) (antibody)
IC50 (µg/mL), pseudovirus neutralization [17]: 0.009 µg/mL
IC50 (µg/mL), pseudovirus neutralization [18]: 0.258 µg/mL
IC50 neutralization [19]: > 50 µg/mL
IC50 (µg/mL), pseudovirus neutralization [20]: > 50 µg/mL
IC50 (µg/mL), pseudovirus neutralization [21]: > 50 µg/mL
IC50 (µg/mL), pseudovirus neutralization [22]: 0.54 µg/mL
IC50 (µg/mL), pseudovirus neutralization [23]: > 50 µg/mL
IC50 (µg/mL), pseudovirus neutralization [24]: 0.01 µg/mL
IC50 neutralization [25]: 0.046 µg/mL
IC50, pseudovirus neutralization [26]: > 10 µg/mL
IC50 (µg/mL), pseudovirus neutralization [27]: 0.869 µg/mL
IC50 (µg/mL), pseudovirus neutralization [28]: > 50 µg/mL
IC50 (µg/mL), pseudovirus neutralization [29]: 0.095 µg/mL
IC50 (µg/mL), pseudovirus neutralization [30]: > 50 µg/mL
IC50 neutralization [31]: > 50 µg/mL
IC50 (µg/mL), pseudovirus neutralization [32]: > 50 µg/mL
IC50 neutralization [33]: > 50 µg/mL
IC50 [34]: > 50 µg/mL
IC50 [35]: 0.061 µg/mL
IC50 (µg/mL), pseudovirus neutralization [36]: 1 µg/mL
IC50 neutralization [37]: 0.014 µg/mL
neutralization IC50 [38]: 0.031 µg/mL
IC50 neutralization [39]: > 50 µg/mL
IC50 (µg/mL), pseudovirus neutralization [40]: > 50 µg/mL
IC50 (µg/mL), pseudovirus neutralization [41]: 0.074 µg/mL

1443_C16 (PG16) (TCN-116) (antibody)
IC50, pseudovirus neutralization [1]: 0.0067 µg/mL
IC50 (µg/ml), pseudovirus neutralization [2]: 0.08 µg/mL
IC50, pseudovirus neutralization [3]: > 50 µg/mL
IC50 (µg/ml), pseudovirus neutralization [4]: > 50 µg/mL
IC50 (µg/ml), pseudovirus neutralization [5]: 0.002 µg/mL
IC50 (µg/ml), pseudovirus neutralization [6]: > 50 µg/mL
IC50 (µg/ml), pseudovirus neutralization [7]: > 50 µg/mL
IC50 (µg/ml), pseudovirus neutralization [8]: 8.83 µg/mL
IC50 (µg/ml), pseudovirus neutralization [9]: 0.11 µg/mL
IC50 [10]: 0.02 µg/mL
IC50 (µg/ml), pseudovirus neutralization [11]: > 50 µg/mL
IC50 (µg/ml), pseudovirus neutralization [12]: 0.08 µg/mL
IC50 (µg/ml), pseudovirus neutralization [13]: 3.83 µg/mL
IC50 (µg/ml), pseudovirus neutralization [14]: 0.004 µg/mL
IC50, pseudovirus neutralization [15]: 0.102 µg/mL
IC50 (µg/ml), pseudovirus neutralization [16]: > 50 µg/mL
